Values of other authors, collected in PMC13200438 (Journal of Nanobiotechnology, 2026).

Conditions: oral semaglutide (Rybelsus)

Substance: semaglutide
- oral (absolute) bioavailability: < 2%
